This data set has as its target rLdACT (Leishmania actin) (Leishmania donovani, UniProt Q86M27 1-376). Nature of the data set: EMSA. (In general: In EMSA bound probe runs differently from free probe, usually more slowly.)

B1: 30 bp DNA probe (dsDNA)
DNA 1: GCGGCCGCATGGCTGACAACGAGCAGAGCT
DNA 2: AGCTCTGCTCGTTGTCAGCCATGCGGCCGC
With B1, the binding result is on record as “binds”.

The record behind these values is publication PMC2879525.
